Results reported in patent publication US20190062422A1 (MorphoSys, published 2019).
Changes are numbered by the printed parent chain.

B1: MOR12759 (antibody, V domains shown)
VH: EVQLVQSGAEVKKPGESLKISCKGSGYSFNNYWIAWVRQMPGKGLEWMGFIYPSNSATQYSPSFQGQVTISADKSISTAYLQWSSLKASDTAMYYCARDNEYSDSYFDVWGQGTLVTVSS
VL: DIVLTQSPATLSLSPGERATLSCRASQIVSSYLAWYQQKPGQAPRLLIYDASSRATGIPARFSGSGSGTDFTLTISSLEPEDFAVYYCQQSVNFPTTFGQGTKVEIKR
notes: Tested as human-mouse chimeric IgG2a (human variable, mouse constant regions); Potential N-linked glycosylation sites were removed by site-directed mutagenesis
B2: MOR12760 (antibody, V domains shown)
VH: B1 VH
VL: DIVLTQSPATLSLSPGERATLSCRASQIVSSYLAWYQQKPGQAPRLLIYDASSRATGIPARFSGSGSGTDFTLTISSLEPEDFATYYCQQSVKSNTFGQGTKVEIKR
notes: as for B1
B3: MOR12762 (antibody, V domains shown)
VH: B1 VH
VL: B1 VL with V92E, N93Q, F94V
notes: as for B1
B4: MOR12761 (antibody, V domains shown)
VH: B1 VH
VL: B1 VL with V85T, V92N, N93G, F94W, P95L, T96P
notes: as for B1
B5: MOR12740 (antibody, V domains shown)
VH: QVQLVQSGAEVKKPGSSVKVSCKASGGTFSIYAISWVRQAPGQGLEWMGGIIPILGIANYAQKFQGRVTITADESTSTAYMELSSLRSEDTAVYYCARDATHSYYHDYWGQGTLVTVSS
VL: DIALTQPASVSGSPGQSITISCTGTSSDVGSYETVSWYQQHPGKAPKVMIYEVSDRPSGVSNRFSGSKSGNTASLTISGLQAEDEADYYCGSFAHWGSWVFGGGTKLTVLG
notes: as for B1
B6: MOR12743 (antibody, V domains shown)
VH: QVQLVQSGAEVKKPGASVKVSCKASGYTFTSNFIHWVRQAPGQGLEWMGWISPYNGDTNYAQKFQGRVTMTRDTSISTAYMELSRLRSEDTAVYYCARESVYYGSDYGYNGMDIWGQGTLVTVSS
VL: DIELTQPPSVSVSPGQTASITCSGDNLGEEYVSWYQQKPGQAPVLVIYDDTKRPSGIPERFSGSNSGNTATLTISGTQAEDEADYYCASWDLWSVEVFGGGTKLTVLG
notes: Tested as human-mouse chimeric IgG2a (human variable, mouse constant regions); Potential N-linked glycosylation sites were removed by site-directed mutagenesis; also called MOR12743_h/m; MOR1243
B7: MOR12751 (antibody, V domains shown)
VH: QVQLQQSGPGLVKPSQTLSLTCAISGDSVSSNSAAWNWIRQSPSRGLEWLGVIYYRSKWYINYADSVKSRITINPDTSKNQFSLQLNSVTPEDTAVYYCAREGIVGGWFAYWGQGTLVTVSS
VL: DIELTQPPSVSVSPGQTASITCSGDKLGSKIAHWYQQKPGQAPVLVIYDDNERPSGIPERFSGSNSGNTATLTISGTQAEDEADYYCQSWDYLSWSVVFGGGTKLTVL
notes: as for B1
B8: MOR12741 (antibody, V domains shown)
VH: QVQLVQSGAEVKKPGSSVKVSCKASGGTFSSYAISWVRQAPGQGLEWMGMIMPEVGMADYAQKFQGRVTITADESTSTAYMELSSLRSEDTAVYYCARDFIAVGSLEIWHYYYGLDVWGQGTLVTVSS
VL: DIELTQPPSVSVSPGQTASITCSGDNIGEHYASWYQQKPGQAPVLVISYDNERPSGIPERFSGSNSGNTATLTISGTQAEDEADYYCQSWTSQKPDYVFGGGTKLTVLG
notes: as for B1
B9: MOR12755 (antibody, V domains shown)
VH: QVQLQQSGPGLVKPSQTLSLTCAISGDSVSSNSAAWNWIRQSPSRGLEWLGKTYYRSTWSNDYAESVKSRITINPDTSKNQFSLQLNSVTPEDTAVYYCAREMDSLTRSASSIAFDYWGQGTLVTVSS
VL: DIELTQPPSVSVSPGQTASITCSGDNLREHYVHWYQQKPGQAPVLVIYDDTERPSGIPERFSGSNSGNTATLTISGTQAEDEADYYCATRDWSNVVFGGGTKLTVLG
notes: as for B1
B10: MOR12756 (antibody, V domains shown)
VH: QVQLQQSGPGLVKPSQTLSLTCAISGDSVSDNSVAWNWIRQSPSRGLEWLGRIYYRSKWYNDYAVSVKSRITINPDTSKNQFSLQLNSVTPEDTAVYYCAREVLLFPARSYGTGMDVWGQGTLVTVSS
VL: DIELTQPPSVSVSPGQTASITCSGDNLPSKYVHWYQQKPGQAPVLVIYDDNERPSGIPERFSGSNSGNTATLTISGTQAEDEADYYCGVADMPRQMKVFGGGTKLTVLG
notes: as for B1
B11: MOR12757 (antibody, V domains shown)
VH: EVQLLESGGGLVQPGGSLRLSCAASGFTFSSYAMSWVRQAPGKGLEWVSFISSGGSETFYADSVKGRFTISRDNSKNTLYLQMNSLRAEDTAVYYCARVSYIYYYSWVLFDVWGQGTLVTVSS
VL: DIQMTQSPSSLSASVGDRVTITCRASQGIGTALNWYQQKPGKAPKLLIYDVSSLQSGVPSRFSGSGSGTDFTLTISSLQPEDFATYYCQQGLFLPFTFGQGTKVEIKR
notes: as for B1
B12: MOR12758 (antibody, V domains shown)
VH: EVQLVQSGAEVKKPGESLKISCKGSGYSFTDYWISWVRQMPGKGLEWMGAIDPTDSYTRYSPSFQGQVTISADKSISTAYLQWSSLKASDTAMYYCARWYTSHPYYEGRYPMDVWGQGTLVTVSS
VL: DIALTQPASVSGSPGQSITISCTGTSSDVGHYNYVSWYQQHPGKAPKLMIYGVTKRPSGVSNRFSGSKSGNTASLTISGLQAEDEADYYCASADEWPTLHVFGGGTKLTVLG
notes: as for B1

target: T1, human IL17C (human, UniProt Q9P0M4 19-197); experiment: ELISA, purified chimeric human/mouse IgG2a on huIL-17C
T1 sequence: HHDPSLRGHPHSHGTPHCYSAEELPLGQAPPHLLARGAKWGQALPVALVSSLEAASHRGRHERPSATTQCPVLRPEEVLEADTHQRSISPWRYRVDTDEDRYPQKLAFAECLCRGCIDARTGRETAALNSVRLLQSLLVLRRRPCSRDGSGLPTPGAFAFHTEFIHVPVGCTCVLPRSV

Does B1 bind?
Result: no binding

Does B2 bind?
Result: no binding

Does B3 bind?
Result: no binding

Does B4 bind?
Result: no binding

Does B5 bind?
Result: no binding

Does B6 bind?
Result: no binding

Does B7 bind?
Result: no binding

Does B8 bind?
Result: no binding

target: T2, mouse IL-17B (mouse, UniProt Q9QXT6 23-180, limits assumed); experiment: ELISA, purified chimeric human/mouse IgG2a on msIL-17B
T2 sequence (looked up): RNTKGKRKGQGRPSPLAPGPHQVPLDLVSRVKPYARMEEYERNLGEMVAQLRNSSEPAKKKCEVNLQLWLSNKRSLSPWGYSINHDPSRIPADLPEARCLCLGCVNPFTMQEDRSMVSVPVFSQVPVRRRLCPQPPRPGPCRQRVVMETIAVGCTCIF

Does B1 bind?
Result: no binding

Does B2 bind?
Result: no binding

Does B3 bind?
Result: no binding

Does B4 bind?
Result: no binding

Does B5 bind?
Result: no binding

Does B6 bind?
Result: no binding

Does B7 bind?
Result: no binding

Does B8 bind?
Result: no binding

target: T3, mouse IL17C (mouse, UniProt Q8K4C5 17-194, limits assumed, biotinylated in the receptor interaction, inhibition and serum stability assays (sites not given)); experiment: ELISA, purified chimeric human/mouse IgG2a titrated on mouse IL17C, n=1-2
T3 construct: Bought recombinant protein; About 22 kDa reduced and about 40 kDa non-reduced on SDS-PAGE; Used plain (coated, ELISA) or biotinylated; also called biotinylated mouse IL17C; biotin-IL17C
T3 sequence (looked up): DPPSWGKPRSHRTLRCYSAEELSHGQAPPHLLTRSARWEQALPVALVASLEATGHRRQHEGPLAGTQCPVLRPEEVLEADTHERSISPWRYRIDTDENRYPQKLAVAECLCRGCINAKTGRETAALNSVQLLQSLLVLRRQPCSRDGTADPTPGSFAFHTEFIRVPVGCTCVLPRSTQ
Experimental: All purified chimeric human-mouse chimeric IgG2a antibodies were titrated on mouse IL17C for EC₅₀ determination in ELISA starting with a concentration of 100 nM. EC₅₀ values on mouse IL17C were determined in 1 to 3 independent experiments.

Which EC50 does the source give for B1 here?
Its EC50 is 0.29 nM.

B2 was tested. Which EC50 did it give?
Its EC50 is 0.27 nM.

Which EC50 does the source give for B3 here?
The EC50 was 0.4 nM.

Which EC50 does the source give for B4 here?
Its EC50 is 0.36 nM.

For B5, which EC50 is on record?
The EC50 was 1.14 nM.

B6 was tested. Which EC50 did it give?
The EC50 was 0.3 nM.

With B7 as the binder, how does the EC50 read?
The EC50 was 0.39 nM.

With B8 as the binder, how does the EC50 read?
The EC50 was 0.47 nM.

target: T3, mouse IL17C; experiment: solution equilibrium titration (SET), ECL based, monovalent Fab fragment (Fab_FH format)
Experimental: Monovalent affinities of anti-IL17C antibodies were determined by solution equilibrium titration (SET) using Fab fragments. Affinity determination in solution was basically performed as described in the literature (Friquet et al., (1985) J. Immunol. Meth. 77: 305-19). In order to improve the sensitivity and accuracy of the SET method, it was transferred from classical ELISA to ECL based technology (Haenel et al. (2005) Anal Biochem. 339.1: 182-84). Binders were expressed and purified in Fab_FH format.

How did the Kd turn out when B1 was run?
The Kd was 0.22 nM.

For B3, which Kd is on record?
The Kd was 0.096 nM.

B4 was tested. Which Kd did it give?
The Kd was 0.085 nM.

Which Kd does the source give for B5 here?
The Kd was 0.17 nM.

Which Kd does the source give for B6 here?
Its Kd is 0.048 nM.

Does B9 bind?
Result: no binding

Does B10 bind?
Result: no binding

Does B11 bind?
Result: no binding

Does B12 bind?
Result: no binding

target: T3, mouse IL17C; experiment: ELISA on biotin-IL17C captured on avidin: chimeric IgG2a incubated 24 h at 37°C in mouse serum against freshly diluted IgG2a
Experimental: 96 well Maxisorp plates (Nunc; #442404) were coated with avidin at a concentration of 1 μg/ml in PBS overnight at 4° C. The next day, anti-IL17 chimeric IgG2a were incubated in mouse serum for 24 h at 37° C. at a final concentration 100 μg/mL. After the incubation step the antibodies were diluted 1:100 in LowCross buffer (Candor Bioscience; #100500). As a reference the same set of antibodies were freshly diluted in LowCross buffer+1% mouse serum and incubated for 30 min at RT. Avidin coated plates were incubated with blocking buffer (Superblock blocking buffer from Pierce, #37515) and subsequently 100 μL of 0.1 μg/mL biotin-IL17C in LowCross buffer was added to blocked wells. After a washing step a serial dilution of the serum-incubated and freshly diluted IgGs was added. Binding of IgGs was detected by anti-mouse-IgG2a POD conjugated detection antibody (diluted 1:5000 in LowCross buffer) using TMB One Component HRP as substrate. The reaction was stopped by adding 1M HCl and absorbance was measured at 450 nm.

Which “Coefficient of variation (Mouse Serum Stability Assay 24h/37°C)” value (shortened to “Coefficient of variation”) does the source give for B1 here?
Its value is 8.8%.

B2 was tested. Which “Coefficient of variation” value did it give?
The value was 35.3%.

With B3 as the binder, how does the “Coefficient of variation” value read?
The value was 2.43%.

B4 was tested. Which “Coefficient of variation” value did it give?
The value was 1.23%.

B6 was tested. Which “Coefficient of variation” value did it give?
The value was 2.88%.

B7 was tested. Which “Coefficient of variation” value did it give?
Its value is 3.75%.

With B8 as the binder, how does the “Coefficient of variation” value read?
Its value is 13%.

target: T3, mouse IL17C; experiment: mIL17C - mIL-17RE inhibition assay (MSD): human/mouse IgG2a pre-incubated with biotinylated mouse IL17C, binding to coated mouse IL17RE/Fc detected by Streptavidin-ECL
Experimental: To determine inhibitory activity of purified anti-IL17C human-mouse chimeric IgG2a in a mIL-17 RE interaction assay, Maxisorp™ 384 well MSD plates were coated with 30 μL mouse IL17RE/Fc at 75 ng/mL in PBS at 4° C. overnight. The next day 25 μL of a serial antibody dilution (concentrations from 0.001 to 100 nM) were pre-incubated for 30 min at RT with an equal volume of biotinylated mouse IL17C at 0.125 nM. After blocking of plates for 1 h with 2.5% BSA in PBST, preformed antibody-ligand complexes were added for 1 h to coated IL17RE/Fc and receptor binding was detected via Streptavidin-ECL using MSD Sector Imager.
To characterize the antibodies in human/mouse IgG2a format in more detail, for each candidate IC₅₀ values were determined in the IL-17 receptor E inhibition assay as described herein above in up to 4 independent experiments.

With B1 as the binder, how does the IC50 read?
Its IC50 is 0.028 nM.

For B2, which IC50 is on record?
Its IC50 is 0.122 nM.

B3 was tested. Which IC50 did it give?
Its IC50 is 0.009 nM.

B4 was tested. Which IC50 did it give?
Its IC50 is 0.024 nM.

Which IC50 does the source give for B5 here?
The IC50 was 3.49 nM.

With B6 as the binder, how does the IC50 read?
Its IC50 is 0.016 nM.

How did the IC50 turn out when B7 was run?
The IC50 was 0.16 nM.
